Assay [1] addresses T1, 4H319-bA.
T1 chain: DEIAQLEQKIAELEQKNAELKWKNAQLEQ
As to the kind of experiment: two-hybrid library CCNG1.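 Note: natural log of median RNA to DNA barcode read ratio; higher means stronger binding.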

The target of assay [2] is T2, 4H348-bA.
T2 chain: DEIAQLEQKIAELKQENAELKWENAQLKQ
As to the kind of experiment: two-hybrid library CCNG1.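 Note: natural log of median RNA to DNA barcode read ratio; higher means stronger binding.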

Assay [3] addresses T3, 4H2223-bA.
T3 chain: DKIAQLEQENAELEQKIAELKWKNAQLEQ
As to the kind of experiment: two-hybrid library CCNG1.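 Note: natural log of median RNA to DNA barcode read ratio; higher means stronger binding.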

In assay [4] the target is T4, 4H2438-bA.
T4 chain: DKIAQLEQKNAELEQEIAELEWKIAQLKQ
As to the kind of experiment: two-hybrid library CCNG1.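 Note: natural log of median RNA to DNA barcode read ratio; higher means stronger binding.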

The target of assay [5] is T5, 4H2588-bA.
T5 chain: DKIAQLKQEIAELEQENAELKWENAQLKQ
As to the kind of experiment: two-hybrid library CCNG1.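 Note: natural log of median RNA to DNA barcode read ratio; higher means stronger binding.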

For assay [6], the target named is T6, 4H3277-bA.
T6 chain: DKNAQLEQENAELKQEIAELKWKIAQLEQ
As to the kind of experiment: two-hybrid library CCNG1.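 Note: natural log of median RNA to DNA barcode read ratio; higher means stronger binding.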

Assay [7] has as its target T7, 4H492-bA.
T7 chain: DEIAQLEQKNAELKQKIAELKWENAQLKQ
As to the kind of experiment: two-hybrid library CCNG1.

In assay [8] the target is T8, 4H741-bA.
T8 chain: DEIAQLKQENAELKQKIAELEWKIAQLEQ
As to the kind of experiment: two-hybrid library CCNG1.

Assay [9] deals with T9, 4H2503-bA.
T9 chain: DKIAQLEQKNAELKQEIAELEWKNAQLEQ
As to the kind of experiment: two-hybrid library CCNG1.

The target of assay [10] is T10, 4H477-bA.
T10 chain: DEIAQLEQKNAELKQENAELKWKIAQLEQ
As to the kind of experiment: two-hybrid library CCNG1.

Assay [11] addresses T11, O14-bN.
T11 chain: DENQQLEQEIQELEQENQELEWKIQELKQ
As to the kind of experiment: two-hybrid library CCNG1.

For assay [12], the target named is T12, 4H2717-bA.
T12 chain: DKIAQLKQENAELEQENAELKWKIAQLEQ
As to the kind of experiment: two-hybrid library CCNG1.

In assay [13] the target is T13, 4H2473-bA.
T13 chain: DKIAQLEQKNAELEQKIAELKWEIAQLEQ
As to the kind of experiment: two-hybrid library CCNG1.

The target of assay [14] is T14, 4H2839-bA.
T14 chain: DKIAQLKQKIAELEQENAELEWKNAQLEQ
As to the kind of experiment: two-hybrid library CCNG1.

Assay [15] addresses T15, 4H40-bA.
T15 chain: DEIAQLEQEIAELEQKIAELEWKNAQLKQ
As to the kind of experiment: two-hybrid library CCNG1.

Assay [16] concerns the target T16, 4H2692-bA.
T16 chain: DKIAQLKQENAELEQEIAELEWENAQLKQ
As to the kind of experiment: two-hybrid library CCNG1.

The target of assay [17] is T17, 4H2915-bA.
T17 chain: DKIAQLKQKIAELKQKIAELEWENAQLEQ
As to the kind of experiment: two-hybrid library CCNG1.

The target in assay [18] is T18, 4H3057-bA.
T18 chain: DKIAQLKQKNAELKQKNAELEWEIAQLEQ
As to the kind of experiment: two-hybrid library CCNG1.

Assay [19] deals with T19, 4H2143-bA.
T19 chain: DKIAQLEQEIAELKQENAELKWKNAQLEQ
As to the kind of experiment: two-hybrid library CCNG1.

Assay [20] has as its target T20, 4H2134-bA.
T20 chain: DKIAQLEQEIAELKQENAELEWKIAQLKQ
As to the kind of experiment: two-hybrid library CCNG1.

The target of assay [21] is T21, O4.
T21 chain: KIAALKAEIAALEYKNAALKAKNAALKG
As to the kind of experiment: two-hybrid library CC0. The following applies: mean of both orientations.

The target of assay [22] is T22, O5.
T22 chain: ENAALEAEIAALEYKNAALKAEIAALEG
As to the kind of experiment: two-hybrid library CC0. As to conditions: mean of both orientations.

Assay [23] has as its target T23, O9.
T23 chain: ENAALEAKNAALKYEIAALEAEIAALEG
As to the kind of experiment: two-hybrid library CC0. The following applies: mean of both orientations.

Assay [24] concerns the target T24, O6.
T24 chain: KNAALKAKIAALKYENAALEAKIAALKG
As to the kind of experiment: two-hybrid library CC0. The following applies: mean of both orientations.

Assay [25] concerns the target T25, O2.
T25 chain: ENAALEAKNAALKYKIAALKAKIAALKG
As to the kind of experiment: two-hybrid library CC0. The following applies: mean of both orientations.

The target in assay [26] is T26, O14.
T26 chain: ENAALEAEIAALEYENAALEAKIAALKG
As to the kind of experiment: two-hybrid library CC0. As to conditions: mean of both orientations.

In assay [27] the target is T27, O15.
T27 chain: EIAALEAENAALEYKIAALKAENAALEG
As to the kind of experiment: two-hybrid library CC0. The following applies: mean of both orientations.

In assay [28] the target is T28, O13.
T28 chain: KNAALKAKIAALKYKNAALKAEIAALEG
As to the kind of experiment: two-hybrid library CC0. As to conditions: mean of both orientations.

In assay [29] the target is T29, O12.
T29 chain: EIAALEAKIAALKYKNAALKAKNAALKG
As to the kind of experiment: two-hybrid library CC0. The following applies: mean of both orientations.

The target of assay [30] is T30, O7.
T30 chain: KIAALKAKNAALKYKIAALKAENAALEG
As to the kind of experiment: two-hybrid library CC0. The following applies: mean of both orientations.

The target in assay [31] is T31, O16.
T31 chain: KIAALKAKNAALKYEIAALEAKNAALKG
As to the kind of experiment: two-hybrid library CC0. As to conditions: mean of both orientations.

For assay [32], the target named is T32, O3.
T32 chain: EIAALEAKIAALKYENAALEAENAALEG
As to the kind of experiment: two-hybrid library CC0. As to conditions: mean of both orientations.

Assay [33] addresses T33, O8.
T33 chain: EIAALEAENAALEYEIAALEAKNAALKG
As to the kind of experiment: two-hybrid library CC0. As to conditions: mean of both orientations.

As to DKIAQLEQEIAELKQENAELEWKIAQLKQ [4H2134-bA], the interaction score in assay [1] was -0.399; in assay [2] it was -1.14; in assay [3] it was -0.522; in [4], 0.819; in assay [5], 0.531; in assay [6] it was 0.0479. The interaction score was 0.114 in [7]; -1.46 in assay [8]; 0.834 in assay [9]; 0.935 in [10]; -1.45 in assay [11]; -0.277 in [12]. Also, the interaction score in assay [13] is 0.432; in assay [14] it was 0.969; in assay [15] it was 0.811; in assay [16], -0.139; in assay [17], 1.66; in assay [18], 2.33. Besides, the results for the interaction score in assay [19] and in [20] were 1.32 and 1.43, respectively.

Turning to EIAALEAKIAALKYKNAALKAKNAALKG [O12], the interaction score in [21] is -2.22; in [22], -2.71; in [23], -2.71; in assay [24], -2.7; in assay [25], -2.79; in assay [26], -2.03. Further, the interaction score in assay [27] is -2.78; in assay [28], -2.79; in [29], -2.79; in assay [30] it was -2.84; in assay [31], -2.78; in assay [32], 0.0458. The same molecule came in with an interaction score in assay [33] of -2.29.
